20 molecules from patent US20250197467A1 (BRIGHT PEAK THERAPEUTICS, published 2025) can be followed below.

Where a chain is given by its changes, count along the chain named.

Sequences and labels used below:
B1: C319 (ligand)
chain: MAAEPVEDNSINFVAMKFIDNTLYFIAEDDENLESDRGRRVANYFGKLKSKLSIIRNLNDQVLFIDQGNRPLFEDMTDSDARDNAPRTIFIISMYADSQPRGMAVAISVKCEKISTLSAENKIISFKEMNPPDNIKDTKSDIIFFQRSVPGHDNKMQFESSSYEGYFLAAEKERDLFKLILKKEDELGDRSIMFTVQNED
B2: C321 (ligand)
chain: B1 chain with V41P, A42L, N43G
B3: C326 (ligand)
chain: MAAEPVEDNSINFVAMKFIDNTLYFIAEDDENLESDRGRRVANPLGLAGSGYFGKLKSKLSIIRNLNDQVLFIDQGNRPLFEDMTDSDARDNAPRTIFIISMYADSQPRGMAVAISVKCEKISTLSAENKIISFKEMNPPDNIKDTKSDIIFFQRSVPGHDNKMQFESSSYEGYFLAAEKERDLFKLILKKEDELGDRSIMFTVQNED
B4: C318 (ligand)
chain: MAAEPVEDNSINFVAMKFIDNTLYFIAEDDENLESDSGRVANYFGKLKSKLSIIRNLNDQVLFIDQGNRPLFEDMTDSDARDNAPRTIFIISMYADSQPRGMAVAISVKCEKISTLSAENKIISFKEMNPPDNIKDTKSDIIFFQRSVPGHDNKMQFESSSYEGYFLAAEKERDLFKLILKKEDELGDRSIMFTVQNED
B5: C318 + Matriptase (ligand)
chain: B4 chain
B6: C320 (ligand)
chain: B4 chain with V40P, A41L, N42G
B7: C316 (ligand)
chain: MAAEPVEDNSINFVAMKFIDNTLYFIAEDDENLESDSGRVANLVGYFGKLKSKLSIIRNLNDQVLFIDQGNRPLFEDMTDSDARDNAPRTIFIISMYADSQPRGMAVAISVKCEKISTLSAENKIISFKEMNPPDNIKDTKSDIIFFQRSVPGHDNKMQFESSSYEGYFLAAEKERDLFKLILKKEDELGDRSIMFTVQNED
B8: C316 + Matriptase (ligand)
chain: B7 chain
B9: C326 + MMP9 (ligand)
chain: LAGSGYFGKLKSKLSIIRNLNDQVLFIDQGNRPLFEDMTDSDARDNAPRTIFIISMYADSQPRGMAVAISVKCEKISTLSAENKIISFKEMNPPDNIKDTKSDIIFFQRSVPGHDNKMQFESSSYEGYFLAAEKERDLFKLILKKEDELGDRSIMFTVQNED
B10: C317 (ligand)
chain: MAAEPVEDNSINFVAMKFIDNTLYFIAEDDENLESDRGRRVANLVGYFGKLKSKLSIIRNLNDQVLFIDQGNRPLFEDMTDSDARDNAPRTIFIISMYADSQPRGMAVAISVKCEKISTLSAENKIISFKEMNPPDNIKDTKSDIIFFQRSVPGHDNKMQFESSSYEGYFLAAEKERDLFKLILKKEDELGDRSIMFTVQNED
B11: C324 (ligand)
chain: B10 chain with L44P, V45L
B12: C324 + MMP9 (ligand)
chain: YFGKLKSKLSIIRNLNDQVLFIDQGNRPLFEDMTDSDARDNAPRTIFIISMYADSQPRGMAVAISVKCEKISTLSAENKIISFKEMNPPDNIKDTKSDIIFFQRSVPGHDNKMQFESSSYEGYFLAAEKERDLFKLILKKEDELGDRSIMFTVQNED
B13: C325 + MMP9 (ligand)
chain: LAGGSGYFGKLKSKLSIIRNLNDQVLFIDQGNRPLFEDMTDSDARDNAPRTIFIISMYADSQPRGMAVAISVKCEKISTLSAENKIISFKEMNPPDNIKDTKSDIIFFQRSVPGHDNKMQFESSSYEGYFLAAEKERDLFKLILKKEDELGDRSIMFTVQNED
B14: C323 (ligand)
chain: MAAEPVEDNSINFVAMKFIDNTLYFIAEDDENLESDRGRRVANLVGGSGYFGKLKSKLSIIRNLNDQVLFIDQGNRPLFEDMTDSDARDNAPRTIFIISMYADSQPRGMAVAISVKCEKISTLSAENKIISFKEMNPPDNIKDTKSDIIFFQRSVPGHDNKMQFESSSYEGYFLAAEKERDLFKLILKKEDELGDRSIMFTVQNED
B15: C325 (ligand)
chain: B14 chain with V41P, A42L, N43G, V45A
B16: C322 (ligand)
chain: MAAEPVEDNSINFVAMKFIDNTLYFIAEDDENLESDSGRVANLVGGSGYFGKLKSKLSIIRNLNDQVLFIDQGNRPLFEDMTDSDARDNAPRTIFIISMYADSQPRGMAVAISVKCEKISTLSAENKIISFKEMNPPDNIKDTKSDIIFFQRSVPGHDNKMQFESSSYEGYFLAAEKERDLFKLILKKEDELGDRSIMFTVQNED
B17: C314 (ligand)
chain: MAAEPVEDNAINFVAMKFIDNTLYFIAEDDENLESDPLGYFGKLKSKLSIIRNLNDQVLFIDQGNRPLFEDMTDSDARDNAPRTIFIISMYADSQPRGMAVAISVKCEKISTLSAENKIISFKEMNPPDNIKDTKSDIIFFQRSVPGHDNKMQFESSSYEGYFLAAEKERDLFKLILKKEDELGDRSIMFTVQNED
B18: C315 (ligand)
chain: B17 chain with A10S
B19: C173 (ligand)
chain: YFGKLKSKLSIIRNLNDQVLFIDQGNRPLFEDMTDSDARDNAPRTIFIISMYADSQPRGMAVAISVKCEKISTLSAENKIISFKEMNPPDNIKDTKSDIIFFQRSVPGHDNKMQFESSSYEGYFLAAEKERDLFKLILKKEDELGDRSIMFTVQNEPLGLAGSNIVPVLLGPKLNHVAVELGKNVRLNCSALLNEEDVIYWMFGEENGSDPNIHEEKEMRIMTPEGKWHASKVLRIENIGESNLNVLYNCTVASTGGTDTKSFILVRKADHHHHHH
B20: C168 (ligand)
chain: B12 chain with K6E, A53K, A63T, S105K

For the first assay, the target named is T1, IL-18 receptor (IL-18Rαβ) on cells (UniProt Q13478 19-541; O95256 20-599, limits assumed).
T1 sequence (looked up) 1: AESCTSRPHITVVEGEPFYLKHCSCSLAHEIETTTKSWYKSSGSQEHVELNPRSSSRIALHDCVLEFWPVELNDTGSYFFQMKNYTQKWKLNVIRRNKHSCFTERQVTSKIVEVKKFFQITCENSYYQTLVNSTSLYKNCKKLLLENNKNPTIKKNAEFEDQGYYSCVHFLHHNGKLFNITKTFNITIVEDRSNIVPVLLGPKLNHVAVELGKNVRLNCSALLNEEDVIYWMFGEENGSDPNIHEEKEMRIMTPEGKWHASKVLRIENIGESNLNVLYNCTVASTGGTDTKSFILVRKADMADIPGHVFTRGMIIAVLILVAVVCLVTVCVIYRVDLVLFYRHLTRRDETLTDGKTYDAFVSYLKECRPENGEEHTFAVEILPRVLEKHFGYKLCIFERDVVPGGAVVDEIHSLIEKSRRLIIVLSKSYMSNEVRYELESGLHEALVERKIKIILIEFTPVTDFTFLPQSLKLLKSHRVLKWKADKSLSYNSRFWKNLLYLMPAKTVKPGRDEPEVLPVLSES
T1 sequence (looked up) 2: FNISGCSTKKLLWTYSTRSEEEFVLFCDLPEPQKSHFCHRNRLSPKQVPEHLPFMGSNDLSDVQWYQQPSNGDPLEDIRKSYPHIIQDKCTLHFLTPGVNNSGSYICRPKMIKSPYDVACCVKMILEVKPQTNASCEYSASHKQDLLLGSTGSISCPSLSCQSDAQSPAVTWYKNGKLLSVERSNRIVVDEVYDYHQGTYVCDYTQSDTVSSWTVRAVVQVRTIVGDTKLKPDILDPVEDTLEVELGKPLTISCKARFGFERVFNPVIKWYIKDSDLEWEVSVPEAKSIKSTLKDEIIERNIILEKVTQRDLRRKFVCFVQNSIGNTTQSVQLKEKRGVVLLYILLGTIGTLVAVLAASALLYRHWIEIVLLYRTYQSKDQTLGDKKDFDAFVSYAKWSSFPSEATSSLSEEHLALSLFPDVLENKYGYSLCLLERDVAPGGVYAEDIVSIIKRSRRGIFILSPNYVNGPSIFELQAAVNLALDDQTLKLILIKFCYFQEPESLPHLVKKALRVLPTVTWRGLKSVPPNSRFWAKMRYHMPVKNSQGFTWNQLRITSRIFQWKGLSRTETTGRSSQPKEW
The assay can be described thus: cell-based or functional assay.
On to B1, for which the “IFNγ release NK-92 assay EC50” value is 21.3 nM.
Same read-out and setting: as for B2, the figure is 112 nM; as for B3, 217 nM; as for B4, 21.9 nM.
In the case of B5, the “IFNγ release NK-92 assay EC50” value is 22.1 nM.
Consider B6, for which the “IFNγ release NK-92 assay EC50” value is 158 nM.
As to B7, the “IFNγ release NK-92 assay EC50” value turned out to be 532 nM.
Still for that read-out and setting: the same measure for B8: 366 nM; for B9: 0.0514 nM.
Same read-out and setting: the same measure for B10: 526 nM.
Take B11: the “IFNγ release NK-92 assay EC50” value was 51.7 nM.
The same measure, in the same setting: as for B12, the figure is 0.0022 nM; as for B13, 0.0467 nM; as for B14, 102 nM.
As to B15, the “IFNγ release NK-92 assay EC50” value is 201 nM.
Take B16: the “IFNγ release NK-92 assay EC50” value came out at 205 nM.
Turning to B17, the “IFNγ release NK-92 assay EC50” value came to 255 nM.
Same read-out and setting: the same measure for B18: 252 nM.

The target in the next assay is T1, IL-18 receptor (IL-18Rαβ) on cells. The assay can be described thus: cell-based or functional assay. The source holds these as a separate data set.
For the molecule B19, the “Hek Blue reporter assay EC50” value is 0.00013 nM.
On the same count and under the same terms, as for B17, the figure is 4 nM; as for B18, 3.36 nM.

A further assay shares this target. The assay can be described thus: cell-based or functional assay. This is another data set of the same source.
For the molecule B20, the “HEK-Blue IL-18R reporter EC50” value turned out to be 0.00773 nM.

The next assay has the same target. The assay can be described thus: cell-based or functional assay. The source holds these as a separate data set.
Regarding B20, the “EC50 (IFNγ stimulation, NK92)” value stood at 0.098 nM.
